Test results: publication PMC8534323

Key:
[1] = target: Als3 (agglutinin-like sequence protein 3), isolated from the surface of C. albicans (C. albicans (endogenous in strain ATCC 10231)) (UniProt Q59L12); experiment: SPR
[2] = target: Phosphoglycerate mutase 1 (Gpm1), recombinant (C. albicans) (UniProt P82612); experiment: SPR
[3] = target: enolase (Eno1) (C. albicans (endogenous in strain ATCC 10231)) (UniProt P30575); experiment: SPR
[4] = target: triosephosphate isomerase 1 (Tpi1) (C. albicans (endogenous in strain ATCC 10231)) (UniProt Q9P940); experiment: SPR
Sequence of triosephosphate isomerase 1 (Tpi1) (C. albicans (endogenous in strain ATCC 10231)) (Q9P940 whole entry): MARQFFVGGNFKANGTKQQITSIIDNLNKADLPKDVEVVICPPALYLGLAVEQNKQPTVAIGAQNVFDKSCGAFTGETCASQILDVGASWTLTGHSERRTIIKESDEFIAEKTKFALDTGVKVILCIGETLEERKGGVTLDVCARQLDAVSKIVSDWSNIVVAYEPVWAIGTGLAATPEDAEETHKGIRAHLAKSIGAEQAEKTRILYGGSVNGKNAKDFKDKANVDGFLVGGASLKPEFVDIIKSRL

[5] = target: Als3 (agglutinin-like sequence protein 3), isolated from the surface of C. albicans (C. albicans (endogenous in strain ATCC 10231)) (UniProt Q59L12); experiment: ELISA-like microplate ligand-binding assay; fungal protein immobilised on the microplate, soluble fluorescent-labeled histones; saturation one-site binding model
[6] = target: enolase (Eno1) (C. albicans (endogenous in strain ATCC 10231)) (UniProt P30575); experiment: as above
[7] = target: Phosphoglycerate mutase 1 (Gpm1), recombinant (C. albicans) (UniProt P82612); experiment: as above

Sequence of Phosphoglycerate mutase 1 (Gpm1), recombinant (C. albicans) (P82612 whole entry): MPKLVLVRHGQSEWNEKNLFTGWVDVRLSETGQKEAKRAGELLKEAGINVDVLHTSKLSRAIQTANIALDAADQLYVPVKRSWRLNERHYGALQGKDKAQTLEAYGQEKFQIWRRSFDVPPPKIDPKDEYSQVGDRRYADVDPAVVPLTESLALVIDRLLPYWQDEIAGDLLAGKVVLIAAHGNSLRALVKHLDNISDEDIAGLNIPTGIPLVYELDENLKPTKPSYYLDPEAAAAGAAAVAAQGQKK

Substance | Kd [1] [nM] | Kd [2] [nM] | Kd [3] [nM] | Kd [4] [nM] | Kd [5] [nM] | Kd [6] [nM] | other results
LL-37(7)Cit (peptide) | – | – | – | – | – | – | decrease of binding against native LL-37 [1]: 50%; loss of binding against native LL-37 [2]: 75%; decrease of binding against native LL-37 [3]: 50%
cathelicidin-derived peptide LL-37 | 228 | 598 | 14.6 | 68.3 | – | – | –
histone H2 (from UniProt P0C0S8 1-130) (natural protein) | – | – | – | – | 1790 | 911 | –
histone H3 (from UniProt P68431 1-136) (natural protein) | – | – | – | – | 23.4 | 1230 | Kd [7]: 258 nM
lactotransferrin (LF) (from UniProt P02788 20-710) (natural protein) | 85.9 | – | – | – | – | – | –
myeloperoxidase (MPO) (enzyme) | 11.6 | 353 | 78.7 | 45 | – | – | –
